Measurements as given in patent publication US20080008707A1, “Denatured collagen peptides and uses thereof” (Cell-Matrix, Inc., priority 2006, published 2008).
Values belong to the binder of their own block, whether it stands above or below them. Square brackets hold non-standard residues; d marks the D form. Ends that are not written are not given here. Hyp = O=C(O)[C@@H]1C[C@@H](O)CN1

Assays:
[1] = biological target: D93, recombinant humanized IgG1 kappa antibody targeting denatured-collagen; assay: competition ELISA on coated human dn-collagen IV
D93, recombinant humanized IgG1 kappa antibody targeting denatured-collagen, sequence (heavy, as listed by the source, chain 1 of 2): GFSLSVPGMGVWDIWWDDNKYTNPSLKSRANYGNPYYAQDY
D93, recombinant humanized IgG1 kappa antibody targeting denatured-collagen, sequence (light, as listed by the source, chain 2 of 2): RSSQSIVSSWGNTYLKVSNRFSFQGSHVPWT

[2] = biological target: HUI77, murine IgM anti-denatured-collagen monoclonal antibody; assay: competition ELISA on coated dn-collagen IV

% inhibition of D93 binding to dn-collagen IV, peptide 1 µM [1]: 9.5%
% inhibition of D93 binding to dn-collagen IV, peptide 10 µM [1]: 3.5%
% inhibition of D93 binding to dn-collagen IV, peptide 100 µM [1]: 2.5%
% inhibition of D93 binding to dn-collagen IV, peptide 1000 µM [1]: 13.5%
% inhibition of HUI77 binding to dn-collagen IV, peptide 10 µM [2]: 8%
% inhibition of HUI77 binding to dn-collagen IV, peptide 100 µM [2]: 10.5%
% inhibition of HUI77 binding to dn-collagen IV, peptide 1000 µM [2]: 8.5%
B1: synthetic peptide No. 10, LPGSPG (SEQ ID NO: 26) (peptide)
peptide: L[Hyp]GS[Hyp]G

% inhibition of D93 binding to dn-collagen IV, peptide 1 µM [1]: 11.5%
% inhibition of D93 binding to dn-collagen IV, peptide 10 µM [1]: 40.5%
% inhibition of D93 binding to dn-collagen IV, peptide 100 µM [1]: 87.5%
% inhibition of D93 binding to dn-collagen IV, peptide 1000 µM [1]: 93.5%
% inhibition of HUI77 binding to dn-collagen IV, peptide 10 µM [2]: 10.5%
% inhibition of HUI77 binding to dn-collagen IV, peptide 100 µM [2]: 12.5%
% inhibition of HUI77 binding to dn-collagen IV, peptide 1000 µM [2]: 63%
B2: synthetic peptide No. 1, … (SEQ ID NO: 29) (peptide)
peptide: PGP[Hyp]GP[Hyp]GP

% inhibition of D93 binding to dn-collagen IV, peptide 1 µM [1]: 8%
% inhibition of D93 binding to dn-collagen IV, peptide 10 µM [1]: 3.5%
% inhibition of D93 binding to dn-collagen IV, peptide 100 µM [1]: 1%
% inhibition of D93 binding to dn-collagen IV, peptide 1000 µM [1]: 6.5%
% inhibition of HUI77 binding to dn-collagen IV, peptide 10 µM [2]: 7%
% inhibition of HUI77 binding to dn-collagen IV, peptide 100 µM [2]: 7.5%
% inhibition of HUI77 binding to dn-collagen IV, peptide 1000 µM [2]: 8.5%
B3: synthetic peptide No. 9, LPGFPGC (SEQ ID NO: 37) (peptide)
peptide: LPGFPGC
modifications: also: hydroxyproline marking, if any, lost

% inhibition of D93 binding to dn-collagen IV, peptide 1 µM [1]: 10.5%
% inhibition of D93 binding to dn-collagen IV, peptide 10 µM [1]: 6%
% inhibition of D93 binding to dn-collagen IV, peptide 100 µM [1]: 8%
% inhibition of D93 binding to dn-collagen IV, peptide 1000 µM [1]: 32%
% inhibition of HUI77 binding to dn-collagen IV, peptide 10 µM [2]: 7%
% inhibition of HUI77 binding to dn-collagen IV, peptide 100 µM [2]: 14.5%
% inhibition of HUI77 binding to dn-collagen IV, peptide 1000 µM [2]: 75%
B4: synthetic peptide No. 19, LPGFPG (SEQ ID NO: 23) (peptide)
peptide: L[Hyp]GF[Hyp]G

% inhibition of D93 binding to dn-collagen IV, peptide 1 µM [1]: 8%
% inhibition of D93 binding to dn-collagen IV, peptide 10 µM [1]: 6.5%
% inhibition of D93 binding to dn-collagen IV, peptide 100 µM [1]: 6.5%
% inhibition of D93 binding to dn-collagen IV, peptide 1000 µM [1]: 46.5%
% inhibition of HUI77 binding to dn-collagen IV, peptide 10 µM [2]: 6%
% inhibition of HUI77 binding to dn-collagen IV, peptide 100 µM [2]: 9.5%
% inhibition of HUI77 binding to dn-collagen IV, peptide 1000 µM [2]: 17.5%
B5: synthetic peptide No. 14, LPGLPG (SEQ ID NO: 25) (peptide)
peptide: L[Hyp]GL[Hyp]G

% inhibition of D93 binding to dn-collagen IV, peptide 1 µM [1]: 33.5%
% inhibition of D93 binding to dn-collagen IV, peptide 10 µM [1]: 83%
% inhibition of D93 binding to dn-collagen IV, peptide 100 µM [1]: 93.5%
% inhibition of D93 binding to dn-collagen IV, peptide 1000 µM [1]: 93.5%
% inhibition of HUI77 binding to dn-collagen IV, peptide 10 µM [2]: 7%
% inhibition of HUI77 binding to dn-collagen IV, peptide 100 µM [2]: 16%
% inhibition of HUI77 binding to dn-collagen IV, peptide 1000 µM [2]: 86.5%
B6: synthetic peptide No. 4, … (SEQ ID NO: 28) (peptide)
peptide: PGP[Hyp]GP[Hyp]GPY

% inhibition of D93 binding to dn-collagen IV, peptide 1 µM [1]: 6%
% inhibition of D93 binding to dn-collagen IV, peptide 10 µM [1]: 5%
% inhibition of D93 binding to dn-collagen IV, peptide 100 µM [1]: 3%
% inhibition of D93 binding to dn-collagen IV, peptide 1000 µM [1]: 17.5%
% inhibition of HUI77 binding to dn-collagen IV, peptide 10 µM [2]: 6.5%
% inhibition of HUI77 binding to dn-collagen IV, peptide 100 µM [2]: 9%
% inhibition of HUI77 binding to dn-collagen IV, peptide 1000 µM [2]: 6%
B7: synthetic peptide No. 18, … (SEQ ID NO: 22) (peptide)
peptide: LPGPPGPPG
modifications: also: hydroxyproline at marked P positions, if any, marking lost
